Source: PMC10634658
One block for each substance: values may come before it.

Legend:
[1] = biological target: BLUF-α3 (PAC-BLUF domain with the α3-helix of OaPAC, residues 1-126) (Oscillatoria acuminata); assay: SEC; Superdex 200 Increase 10/300, PBS, room temperature, 50 μM, 100 μl injected; dark state and light state (column irradiated with a Xe lamp); mass calibrated with a gel filtration standard
[2] = biological target: BLUF-α3 (PAC-BLUF domain with the α3-helix of OaPAC, residues 1-126) (Oscillatoria acuminata); assay: transient grating (diffusion coefficient); 80 μM protein, 23 °C, excitation at 462 nm; diffusion coefficients of reactant (dark) and photoproduct (light) compared with those expected for monomer and dimer
[3] = biological target: PAC-BLUF (BLUF domain of OaPAC, residues 1-102) (Oscillatoria acuminata); assay: SEC; Superdex 200 Increase 10/300, PBS, room temperature, 50 μM, 100 μl injected; dark state and light state (column irradiated with a Xe lamp); mass calibrated with a gel filtration standard
[4] = biological target: PAC-BLUF (BLUF domain of OaPAC, residues 1-102) (Oscillatoria acuminata); assay: transient grating (diffusion coefficient); 80 μM protein, 23 °C, excitation at 462 nm; diffusion coefficients of reactant (dark) and photoproduct (light) compared with those expected for monomer and dimer
[5] = biological target: full-length OaPAC (photoactivated adenylate cyclase from Oscillatoria acuminata) (Oscillatoria acuminata); assay: SAXS; Photon Factory BL-15A2, flowing sample, dark state and light state (450 nm diode laser); molecular mass from the Guinier plot (80 kDa)
[6] = biological target: full-length OaPAC (photoactivated adenylate cyclase from Oscillatoria acuminata) (Oscillatoria acuminata); assay: SEC; Superdex 200 Increase 10/300, PBS, room temperature, 50 μM, 100 μl injected; dark state and light state (column irradiated with a Xe lamp); mass calibrated with a gel filtration standard
[7] = biological target: full-length OaPAC (photoactivated adenylate cyclase from Oscillatoria acuminata) (Oscillatoria acuminata); assay: transient grating (diffusion coefficient); 80 μM protein, 23 °C, excitation at 462 nm; diffusion coefficients of reactant (dark) and photoproduct (light) compared with those expected for monomer and dimer

- stoichiometry N [1]: 2
- stoichiometry N [2]: 2
Substance: BLUF-α3 (PAC-BLUF domain with the α3-helix of OaPAC, residues 1-126) (domain or fragment)

- stoichiometry N [3]: 2
- stoichiometry N [4]: 2
Substance: PAC-BLUF (BLUF domain of OaPAC, residues 1-102) (domain or fragment)

- stoichiometry N [5]: 2
- stoichiometry N [6]: 2
- stoichiometry N [7]: 2
Substance: full-length OaPAC (photoactivated adenylate cyclase from Oscillatoria acuminata) (enzyme)
